35 compounds from patent US20230346949A1, “A METHOD OF FORMING A CONJUGATE OF A SULFONAMIDE AND A POLYPEPTIDE” (SANOFI, priority 2019, published 2023) can be followed below.

Data set [1] has as its target human insulin receptor isoform B (human) (UniProt P06213). The data set can be described thus: cell-based or functional assay.
The target is the same in data set [2]. The data set can be described thus: SPA competition with 100 pM [125I]-human insulin, membranes of CHO cells overexpressing IR.
A short description of data set [3]: Storage stability of the activated sulfonamide. The format is physicochemical. As to conditions: acetonitrile solution under argon, 2 to 8° C. The protocol: 32.5 g 2-[2-[2-[[2-[2-[2-[[2-[[4-(16-tert-butoxy-16-oxo-hexadecoxy)phenyl]sulfonylamino]-pyrimidine-5-carbonyl]amino]ethoxy]ethoxy]acetyl]amino]ethoxy]ethoxy]acetic acid (sticky syrup) was dissolved in 305 ml dry acetonitrile. 305 ml dry ethyl acetate under an argon layer, 16.25 g (63.4 mmol) N,N-disuccinimidylcarbonat and 3.25 g (26.6 mmol) dimethylaminopyridine was added under stirring at room temperature (25° C.). After 90 minutes, the solvent was distilled off using a rotary evaporator and the remaining oily product was dissolved in 1.5 liters of ethyl acetate. The ethyl acetate solution was extracted three times, each time with 300 ml 0.1 N HCl and 300 ml saturated NaCl solution. The solvent was distilled off using a rotary evaporator, leaving again an oily product. The oily product was dissolved in 0.5 liters of ethyl acetate, the precipitated NaCl was filtered off and the ethyl acetate was distilled off. Next, 0.5 liters of ethyl acetate was added and the solvent was distilled off using a rotary evaporator. […] Yield in the acetonitrile solution was calculated from HPLC data as 78% based on the amount of 2-[2-[2-[[2-[2-[2-[[2[[4-(16-tert-butoxy-16-oxo-hexadecoxy)phenyl]sulfonylamino]-pyrimidine-5-carbonyl]amino]ethoxy]ethoxy]acetyl]amino]ethoxy]ethoxy]acetic acid used. […]

Compound “Glu(A14)Gly(A21)Glu(B3)Val(B25)Des(B30)-Insulin (ligand)” returned an Autophosphorylation activity (relative to human insulin) in data set [1] of 0.03. In addition, in data set [2], the Insulin-receptor binding affinity (relative to human insulin) (relative to human insulin) was found to be 0.02.

In the case of “Glu(A14)Gly(A21)Glu(B3)Ile(B16)Trp(B25)Des(B30)-Insulin (ligand)”, in data set [1], the Autophosphorylation activity (relative to human insulin) turned out to be 0.13. The Insulin-receptor binding affinity (relative to human insulin) (relative to human insulin) in data set [2] amounted to 0.12.

Regarding “Glu(A14)Glu(B16)His(B25)Des(B30)-Insulin (ligand)”, the Autophosphorylation activity (relative to human insulin) in data set [1] amounted to 0.07. The compound also had an Insulin-receptor binding affinity (relative to human insulin) (relative to human insulin) in data set [2] of 0.01.

In the case of “Glu(A14)Glu(B3)Val(B16)Val(B25)Des(B30)-Insulin (ligand)”, in data set [1], the Autophosphorylation activity (relative to human insulin) stood at 0.02.

Turning to “Glu(A14)Gly(A21)Glu(B3)Ile(B16)Val(B25)Des(B30)-Insulin (ligand)”, the Autophosphorylation activity (relative to human insulin) in data set [1] came to 0.02. In data set [2], this compound yielded an Insulin-receptor binding affinity (relative to human insulin) (relative to human insulin) of 0.01.

The compound His(B25)Des(B30)-Insulin (ligand) yielded an Autophosphorylation activity (relative to human insulin) in data set [1] of 0.31.

Glu(A14)Des(B30)-Insulin (ligand): the Autophosphorylation activity (relative to human insulin) in data set [1] stood at 0.87.

As to Val(B25)Des(B30)-Insulin (ligand), the Autophosphorylation activity (relative to human insulin) in data set [1] is 0.06.

The compound “Glu(A14)Gly(A21)Val(B16)Trp(B25)Des(B30)-Insulin (ligand)” showed an Autophosphorylation activity (relative to human insulin) in data set [1] of 0.23. In data set [2], this compound registered an Insulin-receptor binding affinity (relative to human insulin) (relative to human insulin) of 0.17.

On to “Glu(A14)Gly(A21)Trp(B25)Des(B30)-Insulin (ligand)”, for which the Autophosphorylation activity (relative to human insulin) in data set [1] turned out to be 0.37.

Regarding “Glu(A14)Gly(A21)Trp(B16)Des(B30)-Insulin (ligand)”, in data set [1], the Autophosphorylation activity (relative to human insulin) is 0.38. The Insulin-receptor binding affinity (relative to human insulin) (relative to human insulin) in data set [2] is 0.63.

Consider “Glu(A14)Val(B16)Des(B30)-Insulin (ligand)”, for which the Autophosphorylation activity (relative to human insulin) in data set [1] worked out at 0.32.

“Glu(A14)His(B16)His(B25)Des(B30)-Insulin (ligand)”: in data set [1], the Autophosphorylation activity (relative to human insulin) came out at 0.11. The compound further gave an Insulin-receptor binding affinity (relative to human insulin) (relative to human insulin) in data set [2] of 0.12.

For the compound “Glu(A14)Val(B16)Val(B25)Des(B30)-Insulin (ligand)”, the Autophosphorylation activity (relative to human insulin) in data set [1] came out at 0.03.

In the case of Ala(B25)Des(B30)-Insulin (ligand), the Autophosphorylation activity (relative to human insulin) in data set [1] worked out at 0.17.

In data set [1], Ala(B25)-Insulin (ligand) returned an Autophosphorylation activity (relative to human insulin) of 0.2.

“Glu(A14)Val(B25)Des(B30)-Insulin (ligand)”: the Autophosphorylation activity (relative to human insulin) in data set [1] stood at 0.04.

Compound “Glu(A14)Ile(B25)Des(B30)-Insulin (ligand)” displayed an Autophosphorylation activity (relative to human insulin) in data set [1] of 0.04.

In data set [1], “Glu(A14)Leu(B16)Ala(B25)Des(B30)-Insulin (ligand)” gave an Autophosphorylation activity (relative to human insulin) of 0.04. This compound had an Insulin-receptor binding affinity (relative to human insulin) (relative to human insulin) in data set [2] of 0.01.

Take “Glu(A14)Ile(B16)Val(B25)Des(B30)-Insulin (ligand)”: the Autophosphorylation activity (relative to human insulin) in data set [1] was found to be 0.04.

In the case of `O=C(O)CCCCCCCCCCCCCCCOc1ccc(S(=O)(=O)Nc2ncc(C(=O)NCCOCCOCC(=O)NCCOCCOCC(=O)ON3C(=O)CCC3=O)cn2)cc1` [16-[4-[[5-[2-[2-[2-[2-[2-[2-(2,5-dioxopyrrolidin-1-yl)oxy-2-oxo-ethoxy]ethoxy]ethylamino]-2-oxo-ethoxy]ethoxy]ethylcarbamoyl]pyrimidin-2-yl]sulfamoyl]phenoxy]hexadecanoate], in data set [3], the stability in solution entry was “less than 3 days”.

Leu(B16)Des(B30)-Insulin (ligand) came in with an Autophosphorylation activity (relative to human insulin) in data set [1] of 0.34.

The compound “Glu(A14)Val(B16)Ile(B25)Des(B30)-Insulin (ligand)” displayed an Autophosphorylation activity (relative to human insulin) in data set [1] of 0.01.

On to Leu(B25)Des(B30)-Insulin (ligand), for which, in data set [1], the Autophosphorylation activity (relative to human insulin) was determined as 0.06.

With “Glu(A14)Ile(B16)Des(B30)-Insulin (ligand)”, in data set [1], the Autophosphorylation activity (relative to human insulin) was determined as 0.18. Besides, the Insulin-receptor binding affinity (relative to human insulin) (relative to human insulin) in data set [2] is 0.23.

In data set [1], “Glu(A14)Glu(B3)Val(B16)Des(B30)-Insulin (ligand)” came in with an Autophosphorylation activity (relative to human insulin) of 0.28. In data set [2], this compound returned an Insulin-receptor binding affinity (relative to human insulin) (relative to human insulin) of 0.4.

“Glu(A14)His(B16)Des(B30)-Insulin (ligand)” came in with an Autophosphorylation activity (relative to human insulin) in data set [1] of 0.29. Further, the Insulin-receptor binding affinity (relative to human insulin) (relative to human insulin) in data set [2] is 0.36.

For “Glu(A14)Gly(A21)Glu(B3)Val(B16)Val(B25)Des(B30)-Insulin (ligand)”, in data set [1], the Autophosphorylation activity (relative to human insulin) was 0.01. The compound also displayed an Insulin-receptor binding affinity (relative to human insulin) (relative to human insulin) in data set [2] of 0.01.

The compound Val(B16)Des(B30)-Insulin (ligand) came in with an Autophosphorylation activity (relative to human insulin) in data set [1] of 0.32.

“Glu(A14)Gly(A21)Glu(B3)Val(B16)Trp(B25)Des(B30)-Insulin (ligand)” returned an Autophosphorylation activity (relative to human insulin) in data set [1] of 0.19. This compound also came in with an Insulin-receptor binding affinity (relative to human insulin) (relative to human insulin) in data set [2] of 0.21.

In turn, “Gly(A21)Trp(B16)Trp(B25)Des(B30)-Insulin (ligand)” registered an Autophosphorylation activity (relative to human insulin) in data set [1] of 0.38. The compound also gave an Insulin-receptor binding affinity (relative to human insulin) (relative to human insulin) in data set [2] of 0.43.

Take “Gly(A21)Trp(B16)Des(B30)-Insulin (ligand)”: the Autophosphorylation activity (relative to human insulin) in data set [1] is 0.4. The Insulin-receptor binding affinity (relative to human insulin) (relative to human insulin) in data set [2] came out at 0.57.

For “His(B16)His(B25)Des(B30)-Insulin (ligand)”, the Autophosphorylation activity (relative to human insulin) in data set [1] came out at 0.1.

Take “Glu(A14)Glu(B3)Ile(B16)Ile(B25)Des(B30)-Insulin (ligand)”: the Autophosphorylation activity (relative to human insulin) in data set [1] is 0.01.

As for “Gly(A21)Trp(B16)His(B25)Des(B30)-Insulin (ligand)”, the Autophosphorylation activity (relative to human insulin) in data set [1] was determined as 0.35. The Insulin-receptor binding affinity (relative to human insulin) (relative to human insulin) in data set [2] came to 0.4.
